Reference: patent US20110217338A1

Tests used:
[1] = target: IgG b12, broadly neutralizing anti-HIV-1 gp120 antibody; assay: SPR, Biacore 2000, 25 C, IgG b12 immobilized on CM5 chip (900 RU)
[2] = target: b122a displayed on the surface of yeast EBY100; assay: flow cytometry of yeast EBY100 displaying b122a, b12 detected with anti-human-PE

Substance	Kd [1] [µM]	concentration of b12 which showed appreciable binding [2] [µM]
Core gp120	0.022	
IgG b12, broadly neutralizing anti-HIV-1 gp120 antibody		9
Wt gp120 (full-length HIV-1 gp120)	0.017	
